From patent EP2078752A2 (LUDWIG INSTITUTE FOR CANCER RESEARCH, dated 2009)

Key:
Assay in all cases: affinity cross-linking of 125I-activin A then immunoprecipitation, COS-1 cells co-transfected with ActR-II
[1] = molecular target: T1, human ALK-5 (clone EMBLA), TGF-β type I receptor (human, UniProt P36897 25-503)
T1 construct: Expressed from cDNA in COS-1 cells and PAE cells (PAE/TβR-I), or endogenous in human cell lines and HUVEC; also called hALK-5; TβR-I
T1 sequence: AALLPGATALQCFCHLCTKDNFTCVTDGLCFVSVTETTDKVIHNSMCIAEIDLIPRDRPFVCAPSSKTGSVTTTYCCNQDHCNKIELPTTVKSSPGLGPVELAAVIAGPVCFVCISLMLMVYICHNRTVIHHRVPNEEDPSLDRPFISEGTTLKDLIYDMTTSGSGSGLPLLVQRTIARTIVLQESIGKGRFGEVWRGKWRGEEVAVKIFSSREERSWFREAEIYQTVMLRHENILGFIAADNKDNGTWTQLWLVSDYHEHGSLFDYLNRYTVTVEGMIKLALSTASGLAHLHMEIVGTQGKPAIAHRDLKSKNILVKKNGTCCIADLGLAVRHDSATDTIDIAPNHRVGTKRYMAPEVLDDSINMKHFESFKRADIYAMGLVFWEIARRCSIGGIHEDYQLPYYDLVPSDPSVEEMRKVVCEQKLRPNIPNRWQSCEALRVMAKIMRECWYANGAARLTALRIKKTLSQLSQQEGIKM

human ALK-1 (clone HP57) = molecular target: T2, human ALK-1 (clone HP57) (human, UniProt P37023 22-503)
T2 construct: Expressed from cDNA in COS-1 cells, or endogenous in HUVEC; also called hALK-1

mouse ALK-6 (clone ME-6) = molecular target: T3, mouse ALK-6 (clone ME-6) (mouse, UniProt P36898 14-502)
T3 construct: Expressed from cDNA in COS-1 cells; also called mALK-6; BMPR-IB

Measured: binding result

T3 sequence (P36898 14-502 limits assumed): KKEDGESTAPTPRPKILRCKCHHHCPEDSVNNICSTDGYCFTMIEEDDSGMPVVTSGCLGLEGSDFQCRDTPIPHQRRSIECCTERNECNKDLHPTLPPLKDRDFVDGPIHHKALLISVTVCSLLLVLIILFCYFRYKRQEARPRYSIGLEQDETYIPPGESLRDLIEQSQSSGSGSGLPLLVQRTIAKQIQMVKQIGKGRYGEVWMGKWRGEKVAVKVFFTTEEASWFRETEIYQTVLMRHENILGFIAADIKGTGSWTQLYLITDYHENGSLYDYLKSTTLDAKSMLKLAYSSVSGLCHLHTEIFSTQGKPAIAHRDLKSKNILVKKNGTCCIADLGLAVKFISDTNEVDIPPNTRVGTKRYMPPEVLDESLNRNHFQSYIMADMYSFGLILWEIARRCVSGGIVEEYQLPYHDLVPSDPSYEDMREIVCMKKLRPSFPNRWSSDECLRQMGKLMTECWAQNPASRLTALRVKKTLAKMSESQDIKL
T2 sequence (P37023 22-503 S172T limits assumed): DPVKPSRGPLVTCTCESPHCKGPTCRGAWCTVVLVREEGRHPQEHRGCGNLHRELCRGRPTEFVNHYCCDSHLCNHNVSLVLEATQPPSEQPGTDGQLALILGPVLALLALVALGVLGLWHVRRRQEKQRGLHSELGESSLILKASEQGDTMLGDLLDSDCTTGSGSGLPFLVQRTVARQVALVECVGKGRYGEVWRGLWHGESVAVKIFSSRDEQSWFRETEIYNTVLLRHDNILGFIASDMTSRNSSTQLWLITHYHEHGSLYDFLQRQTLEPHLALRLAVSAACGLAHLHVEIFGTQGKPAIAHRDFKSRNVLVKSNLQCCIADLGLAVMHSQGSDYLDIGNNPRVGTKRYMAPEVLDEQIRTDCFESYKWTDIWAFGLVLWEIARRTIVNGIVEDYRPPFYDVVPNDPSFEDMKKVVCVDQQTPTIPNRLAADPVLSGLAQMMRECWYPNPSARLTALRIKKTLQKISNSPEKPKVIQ

B1: recombinant human activin A, iodinated (^125I-activin A) (ligand, UniProt P08476 311-426, looked up)
chain: GLECDGKVNICCKKQFFVSFKDIGWNDWIIAPSGYHANYCEGECPSHIAGTSGSSLSFHSTVINHYRMRGHSPFANLKSCCVPTKLRPMSMLYYDDGQNIIKKDIQNMIVEECGCS
modifications: 125I-iodinated by the chloramine T method
notes: Recombinant ligand
binds: all assays above
